Data on one molecule can be found in PMC3501490 (2012).

The assay addresses T1, G6B-b dual phosphopeptide pY211/pY237 (Homo sapiens, UniProt O95866, pY211+pY237).
T1 chain: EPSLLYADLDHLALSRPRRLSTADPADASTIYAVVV
The experiment in a line: SPR. A general note: In SPR one partner is held on a chip, and binding of the other changes the refractive index at the surface.

B1: SHP-1 tandem SH2 (protein)
chain: WFHRDLSGLDAETLLKGRGVHGSFLARPSRKNQGDFSLSVRVGDQVTHIRIQNSGDFYDLYGGEKFATLTELVEYYTQQQGVLQDRDGTIIHLKYPLNCSDPTSERWYHGHMSGGQAETLLQAKGEPWTFLVRESLSQPGDFVLSVLSDQPKAGPGSPLRVTHIKVMCEGGRYTVGGLETFDSLTDLVEHFKKTGIEEASGAFVYLRQPY
With B1, the equilibrium dissociation constant (Kd) (commonly the equilibrium constant for the complex coming apart) stood at 35.3 nM.
